These results are taken from PMC7530003 (Developmental cell, 2020).

For this assay, the target named is F-actin prepared by polymerizing β-actin (UniProt P60709 1-375). Put plainly: co-sedimentation.

B1: ZO-1 ABR construct for co-sedimentation (EGFP-ZO-1(1159–1382)-Dual Strep) (domain or fragment, human, UniProt Q07157 1159-1382, looked up)
chain: EQPAPGYDTHGRLRPEAQPHPSAGPKPAESKQYFEQYSRSYEQVPPQGFTSRAGHFEPLHGAAAVPPLIPSSQHKPEALPSNTKPLPPPPTQTEEEEDPAMKPQSVLTRVKMFENKRSASLETKKDVNDTGSFKPPEVASKPSGAPIIGPKPTSQNQFSEHDKTLYRIPEPQKPQLKPPEDIVRSNHYDPEEDEEYYRKQLSYFDRRSFENKPPAHIAASHLSE
In general, Kd refers to the equilibrium constant for the complex coming apart. Lower therefore signals a tighter complex. As for B1, the Kd is roughly 10 µM.
